Results from patent publication US20140018304A1 (INDUSTRY ACADEMIC COOPERATION FOUNDATION YONSEI UNIVERSITY, published 2014).

Legend:
[1] = target: T1, Bacterial Alkaline Phasphatase (BAP) (UniProt P00634 22-471 = phosphatase); experiment: co-expression in HeLa cells, precipitation with Ni-NTA resin, western blot
T1 construct: Control
Procedure: Appropriate plasmid combination was transfected into HeLa cells using Lipofectamine Plus (Invitrogen). At 48 hours post-transfection, transfected cells were dissolved in the cell lysis buffer (10 mM Tris, pH 7.5, mM NaCl, 2 mM EDTA, 0.5% Triton X-100, 1 mM PMSF, and protease inhibitor cocktail (Roche Diagnostics, Mannheim, Germany)) to obtain total proteins. For secretary protein preparation, the culture medium was exchanged with a serum-free culture medium at 24 hours post transfection of the plasmid, followed by culturing again for 24 hours, and then the culture medium was collected. The collected culture medium was centrifuged to discard cell components. For immunoprecipitation of His-tagged proteins, 300 μg of total proteins and the culture medium were reacted with the Ni-NTA resin at 4 for 5 hours. After 5 hours, the reacted material was washed five times with a washing buffer (50 mM Tris, pH 7.5, 150 mM NaCl, and 0.5% Triton X-100), and then proteins attached to the resin were dissolved in the SDS sample buffer, followed by SDS-PAGE and then western blotting.

[2] = target: T2, GLRX3C, GLRX3 mutant composed of only the C-terminal domains, expressed from 3xFLAG-CMV14/H14C (Homo sapiens, UniProt O76003 134-335); experiment: as above
T2 construct: Deletion construct; not shown: C-terminal 3xFLAG tag of the 3xFLAG-CMV14 vector and the BamHI-site linker to it
T2 sequence: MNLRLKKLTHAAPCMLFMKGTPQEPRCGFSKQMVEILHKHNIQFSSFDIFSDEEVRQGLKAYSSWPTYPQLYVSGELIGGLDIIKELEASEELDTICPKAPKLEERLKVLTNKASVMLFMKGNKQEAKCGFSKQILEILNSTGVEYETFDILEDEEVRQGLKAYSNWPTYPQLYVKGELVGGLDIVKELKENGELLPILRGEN

T1 sequence (P00634 22-471): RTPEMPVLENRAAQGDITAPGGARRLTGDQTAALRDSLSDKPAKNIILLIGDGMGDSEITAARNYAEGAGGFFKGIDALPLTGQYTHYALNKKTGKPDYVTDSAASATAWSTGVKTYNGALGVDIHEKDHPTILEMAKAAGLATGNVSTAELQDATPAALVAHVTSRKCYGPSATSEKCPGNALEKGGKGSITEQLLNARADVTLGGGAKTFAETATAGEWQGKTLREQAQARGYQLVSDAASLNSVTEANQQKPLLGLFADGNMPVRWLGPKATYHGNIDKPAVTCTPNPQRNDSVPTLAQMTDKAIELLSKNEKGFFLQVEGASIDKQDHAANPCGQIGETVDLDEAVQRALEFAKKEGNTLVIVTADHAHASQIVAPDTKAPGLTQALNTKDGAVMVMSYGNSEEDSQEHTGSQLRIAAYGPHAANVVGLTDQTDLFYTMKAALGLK

binding result [1]: no binding
binding result [2]: no binding
B1: PAUF-Myc/His from pcDNA3.1(+)-PAUF-Myc/His (other, UniProt Q96DA0 17-172, looked up)
chain: GKMYGPGGGKYFSTTEDYDHEITGLRVSVGLLLVKSVQVKLGDSWDVKLGALGGNTQEVTLQPGEYITKVFVAFQAFLRGMVMYTSKDRYFYFGKLDGQISSAYPSQEGQVLVGIYGQYQLLGIKSIGFEWNYPLEEPTTEPPVNLTYSANSPVGR
notes: In vivo experiment: expressed in HeLa cells, total proteins and culture medium reacted with Ni-NTA resin; also called PAUF-His; His-PAUF; not shown: Myc/His tag of the pcDNA3.1(+)-Myc/His vector (Invitrogen)
